Test results from patent US20080138335A1 (Kyowa Kirin, published 2008).

What follows are binders tested against T1, CD40 expressed on Ramos [ATCC] cells (UniProt P25942 21-277, limits assumed) (assay: flow cytometry (FACS) on Ramos cells expressing CD40, R-PE anti-human antibody).
T1 construct: whole, on cells; Target of all flow cytometry and CD95 assays; endogenous CD40 on the Ramos cell line
T1 sequence (P25942 21-277 limits assumed): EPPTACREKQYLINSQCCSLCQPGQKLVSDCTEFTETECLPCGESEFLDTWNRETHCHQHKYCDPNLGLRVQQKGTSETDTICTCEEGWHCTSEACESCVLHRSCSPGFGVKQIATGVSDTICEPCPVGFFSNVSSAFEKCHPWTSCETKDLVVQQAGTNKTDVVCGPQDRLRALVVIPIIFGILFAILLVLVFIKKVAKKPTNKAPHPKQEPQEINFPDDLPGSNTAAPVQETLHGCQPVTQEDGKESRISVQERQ

| Binder | binding result |
| --- | --- |
| 341-G [1/1/2/2] (antibody, also called IgG[1/1/2/2]; N5KG1122; not shown: human IgG1 heavy chain constant region, CH1 and hinge domains (EU 118-237), from vector N5KG1-Val Lark; human IgG2 heavy chain constant region, CH2 and CH3 domains (EU 238-446), from vector N5KG2) heavy: QVQLQQSGPGLVKPSQTLSLTCAISGDSVSSNSATWNWIRQSPSRDLEWLGRTYYRSKWYRDYVGSVKSRIIINPDTSNNQFSLQLNSVTPEDTAIYYCTRAQWLGGDYPYYYSMDVWGQGTTVTVSS VL: EIVLTQSPATLSLSPGERATLSCRASQSVSSYLAWYQQKPGQAPRLLIYDASNRATGIPARFSGSGSGTDFTLTISSLEPEDFAVYYCQQRSNTFGPGTKVDIK | binds |
| 341-G [2/2/1/1] (antibody, also called IgG[2/2/1/1]; N5KG2211; not shown: human IgG2 heavy chain constant region, CH1 and hinge domains (EU 118-237), from vector N5KG2; human IgG1 heavy chain constant region, CH2 and CH3 domains (EU 238-446), from vector N5KG1) heavy: QVQLQQSGPGLVKPSQTLSLTCAISGDSVSSNSATWNWIRQSPSRDLEWLGRTYYRSKWYRDYVGSVKSRIIINPDTSNNQFSLQLNSVTPEDTAIYYCTRAQWLGGDYPYYYSMDVWGQGTTVTVSS VL: EIVLTQSPATLSLSPGERATLSCRASQSVSSYLAWYQQKPGQAPRLLIYDASNRATGIPARFSGSGSGTDFTLTISSLEPEDFAVYYCQQRSNTFGPGTKVDIK | binds |
| 4D11-G[1133] (antibody, V domains shown, also called IgG[1/1/3/3]; N5KG1133; not shown: human IgG1 heavy chain constant region, CH1 and hinge domains (EU 118-237), from vector N5KG1-Val Lark; human IgG3 heavy chain constant region, CH2 and CH3 domains (EU 238-446), from vector N5KG3) VH: QLQLQESGPGLLKPSETLSLTCTVSGGSISSPGYYGGWIRQPPGKGLEWIGSIYKSGSTYHNPSLKSRVTISVDTSKNQFSLKLSSVTAADTAVYYCTRPVVRYFGWFDPWGQGTLVTVSS VL: AIQLTQSPSSLSASVGDRVTITCRASQGISSALAWYQQKPGKAPKLLIYDASNLESGVPSRFSGSGSGTDFTLTISSLQPEDFATYYCQQFNSYPTFGQGTKVEIK | binds |
| 4D11-G3[I422V] (antibody, V domains shown, One-amino acid variant of 4D11-G3; also called IgG3[I422V]; N5KG3-1422V; not shown: human IgG3 heavy chain constant region, from vector N5KG3) VH: QLQLQESGPGLLKPSETLSLTCTVSGGSISSPGYYGGWIRQPPGKGLEWIGSIYKSGSTYHNPSLKSRVTISVDTSKNQFSLKLSSVTAADTAVYYCTRPVVRYFGWFDPWGQGTLVTVSS VL: AIQLTQSPSSLSASVGDRVTITCRASQGISSALAWYQQKPGKAPKLLIYDASNLESGVPSRFSGSGSGTDFTLTISSLQPEDFATYYCQQFNSYPTFGQGTKVEIK | binds |
| 4D11-G[3313] (antibody, V domains shown, also called IgG[3/3/1/3]; N5KG3313; not shown: human IgG3 heavy chain constant region, CH1 and hinge domains (EU 118-237), from vector N5KG3; human IgG1 heavy chain constant region, CH2 domain (EU 238-340), from vector N5KG1 by way of N5KG3311; human IgG3 heavy chain constant region, CH3 domain (EU 341-446), from vector N5KG3) VH: QLQLQESGPGLLKPSETLSLTCTVSGGSISSPGYYGGWIRQPPGKGLEWIGSIYKSGSTYHNPSLKSRVTISVDTSKNQFSLKLSSVTAADTAVYYCTRPVVRYFGWFDPWGQGTLVTVSS VL: AIQLTQSPSSLSASVGDRVTITCRASQGISSALAWYQQKPGKAPKLLIYDASNLESGVPSRFSGSGSGTDFTLTISSLQPEDFATYYCQQFNSYPTFGQGTKVEIK | binds |

Second part, the binder after the results:

| binding result | Binder |
| --- | --- |
| binds | 4D11-G3[E356D] (antibody, V domains shown, One-amino acid variant of 4D11-G3; also called IgG3-[E356D]; N5KG3-E356D; not shown: human IgG3 heavy chain constant region, from vector N5KG3) VH: QLQLQESGPGLLKPSETLSLTCTVSGGSISSPGYYGGWIRQPPGKGLEWIGSIYKSGSTYHNPSLKSRVTISVDTSKNQFSLKLSSVTAADTAVYYCTRPVVRYFGWFDPWGQGTLVTVSS VL: AIQLTQSPSSLSASVGDRVTITCRASQGISSALAWYQQKPGKAPKLLIYDASNLESGVPSRFSGSGSGTDFTLTISSLQPEDFATYYCQQFNSYPTFGQGTKVEIK |
| binds | 4D11-G[3311] (antibody, V domains shown, also called IgG[3/3/1/1]; N5KG3311; not shown: human IgG3 heavy chain constant region, CH1 and hinge domains (EU 118-237), from vector N5KG3; human IgG1 heavy chain constant region, CH2 and CH3 domains (EU 238-446), from vector N5KG1) VH: QLQLQESGPGLLKPSETLSLTCTVSGGSISSPGYYGGWIRQPPGKGLEWIGSIYKSGSTYHNPSLKSRVTISVDTSKNQFSLKLSSVTAADTAVYYCTRPVVRYFGWFDPWGQGTLVTVSS VL: AIQLTQSPSSLSASVGDRVTITCRASQGISSALAWYQQKPGKAPKLLIYDASNLESGVPSRFSGSGSGTDFTLTISSLQPEDFATYYCQQFNSYPTFGQGTKVEIK |
| binds | 4D11-G3[M358L] (antibody, V domains shown, One-amino acid variant of 4D11-G3; also called IgG3[M358L]; N5KG3-M358L; not shown: human IgG3 heavy chain constant region, from vector N5KG3) VH: QLQLQESGPGLLKPSETLSLTCTVSGGSISSPGYYGGWIRQPPGKGLEWIGSIYKSGSTYHNPSLKSRVTISVDTSKNQFSLKLSSVTAADTAVYYCTRPVVRYFGWFDPWGQGTLVTVSS VL: AIQLTQSPSSLSASVGDRVTITCRASQGISSALAWYQQKPGKAPKLLIYDASNLESGVPSRFSGSGSGTDFTLTISSLQPEDFATYYCQQFNSYPTFGQGTKVEIK |
